Experimental findings from patent US5932697A, “Synthetic antifreeze peptide” (Virginia Tech Intellectual Properties, Inc., priority 1991, dated 1999) are described below.

The subject of this series is JM109 (DE3). Put plainly: Studies of cell viability in strains expressing WF8R fusion proteins. It counts as cell-based, E. coli. The following applies: JM109 (DE3) [pX28] or [pX284], intracellular expression as P10 fusion; applicants' conclusion from cell viability studies. The text has this:
The pX28 and pX284 were transformed into JM109 (DE3). The proteins produced in either the JM109 (DE3) [pX28] or in the JM109 (DE3) [pX284] after induction by IPTG in mid- or late-logarithmic growth phase, have been analyzed by sodium dodecyl sulfate (SDS)--polyacrylamide gel electrophoresis (SDS-PAGE). […] Studies of cell viability in these strains have shown that both strains are adversely affected with respect to growth and stability of the plasmid (these effects were more pronounced in the pX28 harboring strain). […] To avert this problem the applicants decided to protect the fusion protein from intracellular degradation, as well as to protect the cells from the toxicity of WF8R, by adding to the fusion a C-terminal end derived from E. coli β-galactosidase.

B1: WF8R: synthetic 98 amino acid antifreeze peptide with eight eleven-amino-acid repeats, modeled on winter flounder AFP, expressed in E. coli (protein)
chain: MSTASDAAAAAAATAATAAAAAAATAATAAAAAAATAATAAAAAAATAATAAAAAAATAATAAAAAAATAATAAKAAALTAANAAAAAAATAAAAARG
Take B1: the “toxicity to the cells (growth and stability of the plasmid adversely affected)” value is on record as “toxic to the cells”.
